We go through 17 molecules from patent publication US20210238281A1 (INSTITUT NATIONAL DE LA SANTE ET DE LA RECHERCHE MEDICALE …, published 2021).

Numbering of substitutions follows the chain as printed.

First the molecules themselves.
T1: recombinant human MOG protein (human, UniProt Q16653 30-154, limits assumed)
T1 construct: Bought recombinant protein; also called HMOG
T1 sequence (looked up): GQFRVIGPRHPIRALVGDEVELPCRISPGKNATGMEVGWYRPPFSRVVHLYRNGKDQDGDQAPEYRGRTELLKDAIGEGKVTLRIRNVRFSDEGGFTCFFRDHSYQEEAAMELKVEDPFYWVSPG

T2: recombinant murine MOG protein (murine, UniProt Q61885 29-156, limits assumed)
T2 construct: Bought recombinant protein; also called MMOG
T2 sequence (looked up): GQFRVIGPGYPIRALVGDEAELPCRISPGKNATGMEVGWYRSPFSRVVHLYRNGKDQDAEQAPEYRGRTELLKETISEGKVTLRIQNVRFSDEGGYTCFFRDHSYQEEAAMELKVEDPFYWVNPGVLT

B1: anti-MOG MO3J-72 antibody (scFv, V domains shown)
VH: EVQLVESGGGSVKPGGSLRLSCAASGFRFDDYAMHWVRQAPGKGLEWVSGISWNSGAIGYADSVQGRFTISGDNAKNTLYLQMNGLRVEDTAMYYCARDGHGDYPIDYWGQGTLVTVSS
VL: QSVLTQPPSVSGAPGQRVSISCTGSGSNIGAGFDVHWYQQVPGTTPKLLIYGNNNRPSGVPDRFSGSTSATSASLAITGLQADDEADYYCQSYDRSLRYVFGTGTKLTVL
B2: anti-MOG MO3J-12 antibody (scFv, V domains shown)
VH: EVQLLESGGGLVQPGGSLRLSCAASGFTFSTYWMHWVRQAPGRGLVWVSRINTDGSSTDYADSVKGRFTISRDNAKNTLYLQMNSLRAEDTAVYSCARGGQLVAAANDNWLDPWGQGTLVTVSS
VL: AIQLTQSPSSLSASAGDRVTITCRASQSINNYLNWYQQKPGKAPKVLIYGASNLQSGVPSRFSGSGSGTDFTLTISSLQPEDFATYYCQQSYSTPRTFGQGTKVEIK
B3: anti-MOG MO4H-46 antibody (scFv, V domains shown)
VH: QVQLVQSGAEVKKPGASVKVSCKASGYTFTSYAMHWVRQAPGQRLEWMGWINAGNGNAKYSQKFQGRVTLTRDTSASTAYMKLSSLRSEDTAVYYCARGAPTYRYFDLWGRGTLVTVSS
VL: QSVLTQPPSVSAAPGQKVTISCSGSSSNIGNNYVAWYQQLPGTAPKLLIYDNNKRPSGIPDRFSGSKSGTSATLGITGLQTGDEADYYCGTSDSSLSAVVFGGGTKLTVL
B4: anti-MOG MO3J-26 antibody (scFv, V domains shown)
VH: QVQLVQSGAEVKKPGSSVKVSCKASGGTFSTYTLSWVRQAPGKGLEWMGGFDPEDGETIYAQKFQGRVTMTEDTSTDTAYLELSSLRSDDTAVYYCAADEFWGPGTLVTVSS
VL: B3 VL with K17T, A35S, S92W
B5: anti-MOG MO3B-03 antibody (scFv, V domains shown)
VH: QVQLQQSGPGLVRPSQTLSLTCAISGDSVSSSSAAWNWVRSPSRGLEWLGRTYYRSKWYYDYAVSVKNRIAINPDTSKNQFSLHLNSVTPEDTAVYYCATGWLRGHLDYWGQGTLVTVSS
VL: AIQMTQSPSSVSASVGDRVTITCRATQSISTYLNWYQQKVGRGPKLLVYAASRLQTGVPSRFSGSGSGTDFTLTISSLQPEDSATYYCQQSYSAPPAFGGGTKVEIK
notes: T0004 labels followed
B6: anti-MOG MO4H-03 antibody (scFv, V domains shown)
VH: QVQLVQSGTEVKKPGASVKVSCKVSGYTLTELSMHWVRQAPGKGLEWMGGFDPEDGETIYAQKFQGRVTMTEDTSTDTAYMELSSLRSEDTAVYYCATGATGAFDIWGQGTTVTVSS
VL: DIVMTQTPLSSPVTLGQPASISCRSSQSLVDSDGNTYLNWLQQRPGQPPRLLIYKISNRFSGVPDRFSGSGAGTEFTLKISRVEAEDVGVYYCMQATQFPHTFGQGTKLEIK
B7: anti-MOG MO4B-43 antibody (scFv, V domains shown)
VH: DEVQLLESGGGLVPGGSLRLSCEVSGFSFSNHAMHWVRQAPGKALEHLSVLGSDGRSTYYADSVKGRFTISRDISKTTVYLQMGSLRPGDMGVYYCARGLYGDHWDASDLWGQGTMVTVSS
VL: EIVMTQSPATLSVSPAERVILSCRASQSVGNNVAWFQQKPGQAPRLLIHGASSRATGIPTRFSGSGSGTELTLTISSLQSEDFAVYYCQQYGSAPITFGQGTRLEIK
B8: anti-MOG MO3F-02 antibody (scFv, V domains shown)
VH: QVQLQQSGPGLVKPSQTLSLTCAISGDSVSSNSAAWNWIRKSPSRGLEWLGRTYYRSKWYNDYAVSVKSRITINPDTSKNQFSLQLSSVTPEDTAVYYCARASAGTFGYWGQGTLVTVSS
VL: DIVMTQSPSSLSASVGDRVTMTCRASQTINTYLNWYQQKPGKAPKLLIYAASTLQSGVPSRFSGSGSGTDFSLTISSLQPEDFATYYCQHGYNNPPFTFGPGTKVDIK
B9: anti-MOG MO4H-51 antibody (scFv, V domains shown)
VH: QVQLVQSGAEVKKPGASVKVSCKASGYTFTSYGMHWVRQAPGQRLEWMGWINPGNGNTKYSQKFQGRVTITRDTSASTAYMDLSSLRSEDTAVYYCARLPRIGGWFDPWGQGTLVTVSS
VL: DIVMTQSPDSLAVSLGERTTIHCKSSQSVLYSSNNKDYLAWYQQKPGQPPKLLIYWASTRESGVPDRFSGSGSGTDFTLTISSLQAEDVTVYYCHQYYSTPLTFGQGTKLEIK
B10: anti-MOG MO4H-55 antibody (scFv, V domains shown)
VH: QVQLQQSGPGLVKPSQTLSLTCAISGDSVSSNSAAWNWIRQSPSRGLEWLGRTYYRSKWYNDYAESVKSRMTVTSDTSKNQVSLHLNSVTPEDTAVYYCAREHIAVPGVFDIWGQGTLVTVSS
VL: DVVMTQPPSASGTPGQGVTISCSGSSSNIGSNTVNWYQQLPGTAPKLLIYGSGQRPSGVPDRFSGSRSGTSASLAISGLQSEDEADYYCAAWDDSLNGRVFGQGTKVDIT
B11: anti-MOG MO4H-04 antibody (scFv, V domains shown)
VH: EVQLVQSGAEVKKPVASVKVSCKASGYTFTSYGISWVRQAPGQGLEWMGWISAYNGNTNYAQKLQGRVTMTTDTSTSTAYMELRSLRSDDTAVYYCARNMGCSSTSCFVSWFDPWGQGTLVTVSS
VL: QSALTQPPSASGSPGQSVTISCTGTHSDVGSFDSVSWYQQHPDKAPKLIIYDVNKRPAGVPHRFSGSKSGNTASLTVSGLQSEDEADYYCNSYAGVDNFVFGTGTKVTVL
B12: anti-MOG MO3J-05 antibody (scFv, V domains shown)
VH: B11 VH with V15G
VL: not shown
B13: anti-MOG MO3J-19 antibody (scFv, V domains shown)
VH: B11 VH with V15G
VL: QSVLTQPPSASGTPGQRVTISCSGSTSNIGSQIVNWYQQLPGTAPRLIIYNDNERPSGVSDRFSGSKSDTSASLAISGLQSEDEADYYCAAWDDSLNGYVFGTGTKVTVL
B14: anti-MOG MO4B-42 antibody (scFv, V domains shown)
VH: MAGSLQVDQVQLVQSGAEVKRPGESLKISCEGSGYSFTSSWIGWVRQMPGKGLECMGIIYPGDSDTRYSPSFQGHVTISADKSISTAYLQWSSLRASDTAMYYCARAYHSDYGFDFWGQGTLVTVSS
VL: EIVLTQPLSVSESPGKTVTISCTRSSGSIANNFVQWYQRRPGSSPTTVIYENDQRPSGVPDRFSGSIDSSSNSASLTITGLETQDEADYYCQSFNDDVGGGNSGGGTK
B15: anti-MOG MO3J-37 antibody (scFv, V domains shown)
VH: EVQLVESGGGLVQPGRSLRLSCAASGFTFDDYAMHWVRQAPGKGLEWVSGISWNSGSIGYADSVKGRFTISRDNAKNSLYLQMNSLRAEDTALYYCAKDMRAVAGTEGAFDIWGQGTMVTVSS
VL: QSVVTQPPSMSAAPGQKVTISCSGSSSNIGNNYVSWYQQLPGTAPKLLIYENNKRPSGISDRFSGSKSGTSATLGITGLQTGDEADYYCATGDSGMTLVFGGGTKLTVL
B16: anti-MOG MO4H-65 antibody (scFv, V domains shown)
VH: EVQLVQPGAEVKKPGASVKVSCKASDYTFTSYGISWVRQAPGQGLEWMGWISAYNGNTYYARKFGRVTMTTDTSTTTAYMELRRLRSEDTAVYYCARSGVDNIDYLFDYWGQGTLVTVSS
VL: EIVMTQSPGTMSVSPGESATLSCRASQSVSSNLAWYQQKPGQAPRLLIYGASTRATGLPARFSGSGSRTDFTLTISSLQPEDFATYYCQQTTSFPLTFSGGTKLEIT
B17: anti-MOG MO3J-23 antibody (scFv, V domains shown)
VH: DQVQLVQSGAEVKPGASVKVSCKASGYTFTSYGISWVRQAPGQGLEWMGWISAYNGNTNYAQKLQGRVTMTTDTSTSTAYMELRSLRSDDTAVYYCARDPVGSLRPYYMDVWGEGTTVTVSS
VL: DIVMTQSPSTLSASVGDRVTITCRASQSISTWLAWYQQKPGKAPKLLIYAASSLQSGVPSRFSGSGSGTDFTLTISSLQPEDFATYYCQQSYSTPRTFGQGTKVEIK

The target of one experiment is T1, recombinant human MOG protein. The experiment in a line: phage-scFv ELISA on coated recombinant human MOG (0.5 µg/well), anti-M13 HRP, OD450 over BSA background. The procedure:
(§1) The binding characteristics of the scFvs expressed on the surface of the phages isolated during the screening were determined using an ELISA assay using the recombinant MOG protein (R&D system). Along with the selected clones, phage-scFv-8-18C5 is expressed to serve as a positive control for ELISA. Briefly, phage-scFv were produced in the form of clones isolated on a 96-well plate in 800 μl of 2YT/ampicillin/glucose cultures infected with the helper phage M13K07 (as described previously). The phages produced overnight at 26° C. were then recovered in the supernatants after 30 minutes of centrifugation at 3000 g. These supernatants were directly diluted 1/2 in PBS/4% BSA/0.1% Tween 20 and tested on Maxisorp immunoplates previously coated with 0.5 μg of human or murine MOG or PBS (background control (bdf) in BSA)/well and blocked with 4% BSA in PBS. After incubation for 2 hours at 37° C., the wells were washed 3 times with PBS/0.1% Tween-20 and bound phages-scfv were detected with anti-M13 HRP antibody (GE Healthcare). The plate is read at 450 nm (OD) on a plate reader (TECAN). The results are expressed as a ratio: OD on target/OD bdf (OD on an uncoated plate saturated with BSA) and the ratios are compared with that obtained for the positive control.
Background: ELISA stands for enzyme-linked immunosorbent assay.
With B1, the “ratio OD on target/OD bdf” value came to 2.05 ratio.
As for B2, the “ratio OD on target/OD bdf” value stood at 16.4 ratio.
The same measure, in the same setting: next, B3: 6.57 ratio; B4: 14.6 ratio.
Still for that read-out and setting: then B5, with 6.23 ratio.
Still for that read-out and setting: then B6, with 5.14 ratio.
As for B7, the “ratio OD on target/OD bdf” value was found to be 5.82 ratio.
Same read-out and setting: next, B8: 13.8 ratio; B9: 3.46 ratio.
Still for that read-out and setting: then B10, with 2.99 ratio.
On the same count and under the same terms, then B11, with 9.36 ratio; and B12, with 16.4 ratio; and B13, with 11.7 ratio.
For the molecule B14, the “ratio OD on target/OD bdf” value stood at 6.11 ratio.
The same measure, in the same setting: then B15, with 12.9 ratio.
With B16, the “ratio OD on target/OD bdf” value was determined as 2.44 ratio.
The same measure, in the same setting: then B17, with 15.9 ratio.

The next experiment addresses T2, recombinant murine MOG protein. The experiment in a line: phage-scFv ELISA on coated recombinant murine MOG (0.5 µg/well), anti-M13 HRP, OD450 over BSA background. As to the method:
as §1
For the molecule B2, the “ratio OD on target/OD bdf” value was found to be 8.99 ratio.
Same read-out and setting: next, B3: 4.68 ratio; B4: 3.62 ratio; B5: 5.55 ratio.
Same read-out and setting: next, B6: 9.12 ratio.
On the same count and under the same terms, next, B7: 9.56 ratio.
In the case of B8, the “ratio OD on target/OD bdf” value is 22.1 ratio.
In the case of B11, the “ratio OD on target/OD bdf” value was determined as 9.78 ratio.
The same measure, in the same setting: next, B12: 7.53 ratio; B13: 5.66 ratio.
The same measure, in the same setting: next, B14: 6.68 ratio; B15: 6.66 ratio; B17: 7.46 ratio.
